According to EP4696707A1:

Target: ATP5B protein (UniProt P06576)
Assay: SPR, ATP5B amine-coupled to CM5 chip, peptide in flow at 50 µl/min; binding relative to SEQ ID NO: 12

Sequence of ATP5B protein (P06576 48-529 limits assumed): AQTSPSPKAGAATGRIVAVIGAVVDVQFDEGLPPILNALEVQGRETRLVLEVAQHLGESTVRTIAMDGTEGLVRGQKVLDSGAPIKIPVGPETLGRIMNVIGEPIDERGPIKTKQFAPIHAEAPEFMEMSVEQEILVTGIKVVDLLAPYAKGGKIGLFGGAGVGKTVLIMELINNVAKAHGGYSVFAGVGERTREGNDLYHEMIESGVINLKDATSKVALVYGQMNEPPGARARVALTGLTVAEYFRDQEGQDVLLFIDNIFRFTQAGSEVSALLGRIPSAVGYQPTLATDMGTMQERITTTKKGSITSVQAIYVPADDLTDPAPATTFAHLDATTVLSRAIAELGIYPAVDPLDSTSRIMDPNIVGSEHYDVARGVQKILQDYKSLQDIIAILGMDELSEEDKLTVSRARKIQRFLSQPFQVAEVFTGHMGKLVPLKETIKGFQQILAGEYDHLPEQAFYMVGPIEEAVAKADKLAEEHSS

Row | Binding (%) | Binder
1 | 100 | VDRGAGSIREAGGAFGKREQAEEERYFR [Shortened substance (8-35)]
2 | 85.2 | VDRGAGSIREAGGAFGKAEQAEEERYFR [Shortened substance (8-35) amino acid Ala substituted (25)]
3 | 94.1 | VDRGAGSIREAGGAFGKRAQAEEERYFR [Shortened substance (8-35) amino acid Ala substituted (26)]
4 | 89.5 | VDRGAGSIREAGGAFGKREAAEEERYFR [Shortened substance (8-35) amino acid Ala substituted (27)]
5 | 96.7 | VDRGAGSIREAGGAFGKREQAAEERYFR [Shortened substance (8-35) amino acid Ala substituted (29)]
6 | 94 | VDRGAGSIREAGGAFGKREQAEAERYFR [Shortened substance (8-35) amino acid Ala substituted (30)]
7 | 158 | VDRGAGSIREAGGAFGKREQAEEARYFR [Shortened substance (8-35) amino acid Ala substituted (31)]
8 | 426 | VDRGAGSIREAGGAFGKREQAEEEAYFR [Shortened substance (8-35) amino acid Ala substituted (32)]
9 | 146 | VDRGAGSIREAGGAFGKREQAEEERAFR [Shortened substance (8-35) amino acid Ala substituted (33)]
10 | 92.1 | VDRGAGSIREAGGAFGKREQAEEERYAR [Shortened substance (8-35) amino acid Ala substituted (34)]
11 | 104 | VDAGAGSIREAGGAFGKREQAEEERYFR [Shortened substance (8-35) amino acid Ala substituted (10)]
12 | 98.5 | VDRGAASIREAGGAFGKREQAEEERYFR [Shortened substance (8-35) amino acid Ala substituted (13)]
13 | 99.3 | VDRGAGSAREAGGAFGKREQAEEERYFR [Shortened substance (8-35) amino acid Ala substituted (15)]

Further lines, the binder ahead of its results:

Row | Binder | Binding (%)
14 | VDRGAGSIRAAGGAFGKREQAEEERYFR [Shortened substance (8-35) amino acid Ala substituted (17)] | 169
15 | VDRGAGSIREAAGAFGKREQAEEERYFR [Shortened substance (8-35) amino acid Ala substituted (19)] | 89.6
16 | VDRGAGSIREAGAAFGKREQAEEERYFR [Shortened substance (8-35) amino acid Ala substituted (20)] | 68
17 | VDRGAGSIREAGGAAGKREQAEEERYFR [Shortened substance (8-35) amino acid Ala substituted (22)] | 94
18 | VDRGAGSIREAGGAFAKREQAEEERYFR [Shortened substance (8-35) amino acid Ala substituted (23)] | 102
19 | VDRGAGSIREAGGAFGAREQAEEERYFR [Shortened substance (8-35) amino acid Ala substituted (24)] | 100
20 | ADRGAGSIREAGGAFGKREQAEEERYFR [Shortened substance (8-35) amino acid Ala substituted (8)] | 101
21 | VDRGAGSIREAGGAFGKREQAEEERYFA [Shortened substance (8-35) amino acid Ala substituted (35)] | 110
22 | VARGAGSIREAGGAFGKREQAEEERYFR [Shortened substance (8-35) amino acid Ala substituted (9)] | 91.6
23 | VDRAAGSIREAGGAFGKREQAEEERYFR [Shortened substance (8-35) amino acid Ala substituted (11)] | 100
24 | VDRGAGAIREAGGAFGKREQAEEERYFR [Shortened substance (8-35) amino acid Ala substituted (14)] | 98.8
25 | VDRGAGSIAEAGGAFGKREQAEEERYFR [Shortened substance (8-35) amino acid Ala substituted (16)] | 97
